B1: HDV Ribozyme (parent)
chain: GGCCGGCAUGGUCCCAGCCUCCUCGCUGGCGCCGGCUGGGCAACAUUCCGAGGGGACCGUCCCCUCGGUAAUGGCGAAUGGGACCCA

We go through 167 variants from the RNAGym collection of RNA variant scans (doi:10.7554/elife.80360).

Variants of B1 are the subject of the data set. As to the kind of experiment: self-cleavage, relative activity (ratio to wild type); higher = more cleavage; co-transcriptional.
Turning to C13G C58U, the self-cleavage amounted to 0.0898.
With C4U G11C, the self-cleavage was found to be 0.
Consider C13A G38C, for which the self-cleavage was determined as 0.106.
In the case of A43U U60G, the self-cleavage was 0.394.
Turning to G59A A87C, the self-cleavage was found to be 0.974.
Turning to C19U A87C, the self-cleavage was 0.235.
As to C30A A56G, the self-cleavage was 0.529.
Take G52A C85U: the self-cleavage turned out to be 0.923.
For C13U G31C, the self-cleavage came to 0.198.
As for C62U G76A, the self-cleavage was 1.12.
As for C19G U79C, the figure is 0.0264; as for C36U U60A, 0.727.
As for G25U G74C, the self-cleavage was 0.0308.
In the case of G25U G74A, the self-cleavage came out at 0.0707.
With C48U A71U, the self-cleavage came out at 0.585.
Consider C44A A77C, for which the self-cleavage turned out to be 0.128.
In the case of U79G A87U it was 0.511; in that of C18U G82C, 0.166; in that of G17C G82U, 0.
In the case of C24G G28C it was 0.214; in that of G17C, 0.338.
Take G6C G17A: the self-cleavage turned out to be 0.
As for C44U C57U, the self-cleavage is 0.704.
With G80C C85U, the self-cleavage was 0.194.
In the case of G40A C85U it was 1.1; in that of C19U C63U, 0.134; in that of G11U C21G, 0.086.
For C14A C57U, the self-cleavage was determined as 1.23.
On to U60A C61U, for which the self-cleavage was 1.15.
Take G74C G80C: the self-cleavage amounted to 0.183.
In the case of C58G G80U it was 0.0903.
Regarding U23G C62U, the self-cleavage was 0.403.
In the case of G11U A77G, the self-cleavage stood at 0.283.
As for A42C C62U, the self-cleavage stood at 0.157.
For C21U A43U, the self-cleavage amounted to 0.13.
Turning to C62U C84A, the self-cleavage came out at 1.14.
G74U G81A: the self-cleavage turned out to be 0.211.
On to G17A A45G, for which the self-cleavage worked out at 0.755.
As for G52C A77U, the self-cleavage came to 0.731.
As for G25A U69C, the figure is 0.302.
G31A C44G: the self-cleavage turned out to be 0.133.
Turning to C57U G74A, the self-cleavage was 0.501.
Take C36U G68C: the self-cleavage was determined as 0.563.
As for U9C G50U, the self-cleavage is 1.02.
As for C41A U47A, the figure is 0.689.
As for G25C C63A, the figure is 0.0755; as for C7A U60A, 0.665; as for A16C C18A, 0.0665.
With U46G G50A, the self-cleavage was found to be 0.525.
For the variant C18G G68A, the self-cleavage is 0.0504.
On to C64G A70C, for which the self-cleavage stood at 0.536.
For the variant C7U C19G, the self-cleavage worked out at 0.0528.
In the case of C49G G53A it was 0.475; in that of C19G C22G, 0; in that of C26U G73U, 0.502.
In the case of A16G G80C, the self-cleavage was found to be 0.249.
As to G2U G81A, the self-cleavage came out at 0.
Consider U37C U69A, for which the self-cleavage came out at 0.9.
Take C15U G53U: the self-cleavage worked out at 0.767.
As for C26U U72C, the self-cleavage was 0.906.
As to C14A C48U, the self-cleavage turned out to be 0.791.
G68A A71U: the self-cleavage came to 0.867.
As for U27A G28A, the self-cleavage stood at 0.0811.
On to C63G G74A, for which the self-cleavage worked out at 0.326.
Consider C14A A51U, for which the self-cleavage was 0.779.
C41A U46G: the self-cleavage was determined as 0.554.
On to G17A C26G, for which the self-cleavage amounted to 0.793.
As for G29U G73A, the self-cleavage is 0.0898.
As for U9C C61A, the figure is 1.03; as for C22U C30G, 0.126; as for G67A G81C, 0.117.
With G38A G82U, the self-cleavage came to 0.0405.
In the case of C61A C63U, the self-cleavage turned out to be 1.07.
Regarding C58A C84A, the self-cleavage is 0.644.
For C62A U72C, the self-cleavage was found to be 0.38.
As to G39C C44G, the self-cleavage is 0.
C33A G39U: the self-cleavage worked out at 0.138.
Take G17C C63G: the self-cleavage came to 0.244.
Regarding U12C U65G, the self-cleavage was 0.323.
As for C18A A43C, the self-cleavage amounted to 0.0462.
For the variant A45C A87U, the self-cleavage was 0.531.
With G11C G40A, the self-cleavage is 0.208.
Turning to C44G C48U, the self-cleavage turned out to be 0.517.
For G1C C4G, the self-cleavage is 0.
Take G28C U46C: the self-cleavage was determined as 0.0723.
On to C61A C66A, for which the self-cleavage was found to be 0.992.
Take C26A G31U: the self-cleavage is 0.425.
Turning to G5A U27G, the self-cleavage was found to be 0.217.
For A42G C84G, the self-cleavage turned out to be 0.314.
As for C15G G17C, the figure is 0.0875; as for C7U C86G, 0.617.
As for G10U G39C, the self-cleavage came out at 0.138.
Take C14G U23C: the self-cleavage is 0.712.
Regarding C57U C84U, the self-cleavage stood at 0.856.
Turning to U20A A70U, the self-cleavage was 0.0615.
As for G25C C86U, the self-cleavage turned out to be 0.104.
As to U9G C44U, the self-cleavage was 0.443.
For C58U A83U, the self-cleavage amounted to 0.453.
With G38C, the self-cleavage amounted to 0.239.
For G40A A43G, the self-cleavage was 0.623.
As to A51G G73A, the self-cleavage worked out at 0.864.
With C19A A51U, the self-cleavage worked out at 0.175.
For the variant G25C C62A, the self-cleavage stood at 0.18.
As to C30U C64G, the self-cleavage came to 0.653.
In the case of G1C G67A it was 0.0898; in that of G10U U20A, 0.0639.
On to U23A G67A, for which the self-cleavage is 0.782.
As for A42U A45G, the figure is 0.237.
As to U20C A43G, the self-cleavage stood at 0.0978.
Consider G35C C36U, for which the self-cleavage is 0.108.
In the case of U9A C58U, the self-cleavage worked out at 0.77.
In the case of G40C A70U it was 0.191; in that of A43G A51U, 0.646.
With G31U C36A, the self-cleavage is 0.106.
A51G U60A: the self-cleavage worked out at 0.852.
As to U23A U27A, the self-cleavage stood at 0.675.
As for G2C U79C, the self-cleavage is 0.101.
In the case of G35U U69G it was 0.302.
C7G C84U: the self-cleavage stood at 0.
As for U20A A78U, the self-cleavage came to 0.
In the case of C62G A78G it was 0.745; in that of C4G G39U, 0.0346; in that of U12C A45U, 0.196.
For the variant U27A A78U, the self-cleavage was determined as 0.256.
With U23G C61U, the self-cleavage was 0.923.
As for G6U A43C, the figure is 0.0489; as for A45U C86U, 0.95.
As to U23G C33G, the self-cleavage stood at 0.161.
Take G11A U60C: the self-cleavage stood at 0.43.
Take C18U C64G: the self-cleavage worked out at 0.736.
As for G1U G39C, the self-cleavage stood at 0.397.
In the case of C63U G74C it was 0.201.
In the case of C4G A43G, the self-cleavage turned out to be 0.
In the case of C26G C32G it was 0.203; in that of C14G A77U, 0.
In the case of A70U G73U it was 0.169.
As for U37A C48G, the figure is 0.148; as for G28C G39A, 0.0744.
For U47C G59A, the self-cleavage turned out to be 0.954.
As for G5A C32U, the figure is 0.198; as for G11A A71U, 0.229; as for C30A G39C, 0.157.
Turning to U60G G82C, the self-cleavage came out at 0.133.
Consider U12C C84A, for which the self-cleavage turned out to be 0.222.
Consider G74U A87C, for which the self-cleavage was 0.554.
Regarding G31C A78U, the self-cleavage was determined as 0.148.
On to U23G C57G, for which the self-cleavage is 0.831.
Take C18A C44A: the self-cleavage came out at 0.17.
For U27A C30A, the self-cleavage stood at 0.525.
With A16C A87C, the self-cleavage was 0.671.
With C30A A51U, the self-cleavage is 0.735.
Consider C64U G73C, for which the self-cleavage came out at 0.601.
As for G2U A87C, the figure is 0.0661; as for C14U G34U, 0.248; as for G53U C57G, 1.1.
On to G80C G81U, for which the self-cleavage turned out to be 0.231.
G2C C44U: the self-cleavage stood at 0.0453.
In the case of G6A A70U, the self-cleavage was 0.399.
With C14A G38A, the self-cleavage stood at 0.
Regarding G54C U79A, the self-cleavage came to 0.755.
In the case of G50C A83U it was 0.504; in that of U37C C44G, 0.63.
In the case of A77C A87C, the self-cleavage came out at 0.391.
In the case of U20G U69C, the self-cleavage is 0.185.
Turning to G54U G80C, the self-cleavage came out at 0.159.
For the variant G38C G54A, the self-cleavage came out at 0.132.
C19U A78G: the self-cleavage was found to be 0.0405.
